Data on one substance can be found in publication PMC5492955.

This assay has as its target the single-site mutations V130C and L210C. Kind of assay: radioligand binding.

Regarding “glucagon (from UniProt P01275) (peptide)”, the glucagon binding (% of WT) was 50%.
